Reference: patent US20210347848A1 (ALX ONCOLOGY, published 2021)
Changes are numbered by the printed parent chain.

T1: mouse CD47 (mouse, UniProt Q61735 19-140, limits assumed)
T1 construct: Soluble analyte in SPR; construct not described
T1 sequence (looked up): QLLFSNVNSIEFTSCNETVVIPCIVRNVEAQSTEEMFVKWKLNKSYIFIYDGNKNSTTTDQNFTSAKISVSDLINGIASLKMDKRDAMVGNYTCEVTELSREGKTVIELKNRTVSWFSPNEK

B1: Decoy polypeptide R (Fc fusion)
chain: EEELQMIQPEKLLLVTVGKTATLHCTVTSLLPVGPVLWFRGVGPGRELIYNQKEGHFPRVTTVSDLTKRNNMDFSIRISSITPADVGTYYCVKFRKGSPENVEFKSGPGTEMALGAKPSDKTHTCPPCPAPEAAGAPSVFLFPPKPKDTLMISRTPEVTCVVVDVSHEDPEVKFNWYVDGVEVHNAKTKPREEQYASTYRVVSVLTVLHQDWLNGKEYKCKVSNKALPAPIEKTISKAKGQPREPQVYTLPPSREEMTKNQVSLTCLVKGFYPSDIAVEWESNGQPENNYKTTPPVLDSDGSFFLYSKLTVDKSRWQQGNVFSCSVMHEALHNHYTQKSLSLSPG
notes: also called wild type SIRPγ
B2: Decoy polypeptide J (Fc fusion)
chain: B1 chain with M6I, V27I, V36I, L37Q, K53R, E54D, H56P, L66G, S98T, N101D
B3: Decoy polypeptide L (Fc fusion)
chain: EEELQLIQPEKLLLVTVGKTATLHCTITSLFPPGPIQWFRGVGPGRVLIYNQKDGPFPRVTTVSDGTKRNNMDFSIRISSITPADVGTYYCVKFRKGIPEDVEFKSGPGTEMALGAKPSDKTHTCPPCPAPEAAGAPSVFLFPPKPKDTLMISRTPEVTCVVVDVSHEDPEVKFNWYVDGVEVHNAKTKPREEQYASTYRVVSVLTVLHQDWLNGKEYKCKVSNKALPAPIEKTISKAKGQPREPQVYTLPPSREEMTKNQVSLTCLVKGFYPSDIAVEWESNGQPENNYKTTPPVLDSDGSFFLYSKLTVDKSRWQQGNVFSCSVMHEALHNHYTQKSLSLSPG
B4: Decoy polypeptide G (Fc fusion)
chain: B3 chain with L6I, P33V, I36V, Q37L, K53R, D54Q, G66T, I98T
B5: Decoy polypeptide D (Fc fusion)
chain: B3 chain with L6I, P33V, P56H, I98S
B6: Decoy polypeptide C (Fc fusion)
chain: B3 chain with L6I, P33V, I98S
B7: Decoy polypeptide B (Fc fusion)
chain: B3 chain with L6I, P33V, K53R, I98T
B8: Decoy polypeptide F (Fc fusion)
chain: B3 chain with L6I, L30H, P33V, P56H, I98S
B9: Decoy polypeptide H (Fc fusion)
chain: B3 chain with L6I, P33V, V47E, Q52A, K53R, D54E, P56R, G66L, I98S
B10: Decoy polypeptide A (Fc fusion)
chain: B1 chain with M6I, V27I, L31F, E47V, K53R, E54Q, H56P, L66T, V92I
notes: expressed in Expi293 cells
B11: Decoy polypeptide Q (Fc fusion)
chain: EEELQIIQPDKSISVAAGESATLHCTITSLFPVGPIQWFRGAGPGRVLIYNQRQGPFPRVTTVSDTTKRNNMDFSIRISNITPADAGTYYCIKFRKGSPDDVEFKSGAGTELSVRAKPSDKTHTCPPCPAPEAAGAPSVFLFPPKPKDTLMISRTPEVTCVVVDVSHEDPEVKFNWYVDGVEVHNAKTKPREEQYASTYRVVSVLTVLHQDWLNGKEYKCKVSNKALPAPIEKTISKAKGQPREPQVYTLPPSREEMTKNQVSLTCLVKGFYPSDIAVEWESNGQPENNYKTTPPVLDSDGSFFLYSKLTVDKSRWQQGNVFSCSVMHEALHNHYTQKSLSLSPG
B12: Decoy polypeptide P (Fc fusion)
chain: B11 chain with E2D, D10E, I13V, H24R, T26A, P44A, D65E, M72L, R77S
B13: Decoy polypeptide U (Fc fusion)
chain: B11 chain with I13V, S14L, S20T, H24R, V47E, Q54E, S79G, N80A, I92V
notes: positive control
B14: Decoy polypeptide M (Fc fusion)
chain: B3 chain with L6I, P33I, Q37L, I98S
B15: Decoy polypeptide I (Fc fusion)
chain: B3 chain with L6I, P33V, K53R, D54E, I98S
B16: Decoy polypeptide K (Fc fusion)
chain: B3 chain with L6I, I27L, F31L, P33V, Q37L, K53R, I98N
B17: Decoy polypeptide E (Fc fusion)
chain: B3 chain with L6I, P33V, V42A, K53R, V92I, I98T
B18: Decoy polypeptide N (Fc fusion)
chain: B3 chain with L6M, P33V, V42A, K53R, V92I
B19: Decoy polypeptide T (Fc fusion)
chain: B11 chain with I6V, I27V, F31I, V47E, R53K, Q54E, P56H, T66L, I92V, D101H
notes: also called wild type SIRPβ2
B20: Decoy polypeptide S (Fc fusion)
chain: EDELQVIQPEKSVSVAAGESATLRCAMTSLIPVGPIMWFRGAGAGRELIYNQKEGHFPRVTTVSELTKRNNLDFSISISNITPADAGTYYCVKFRKGSPDDVEFKSGAGTELSVRAKPSDKTHTCPPCPAPEAAGAPSVFLFPPKPKDTLMISRTPEVTCVVVDVSHEDPEVKFNWYVDGVEVHNAKTKPREEQYASTYRVVSVLTVLHQDWLNGKEYKCKVSNKALPAPIEKTISKAKGQPREPQVYTLPPSREEMTKNQVSLTCLVKGFYPSDIAVEWESNGQPENNYKTTPPVLDSDGSFFLYSKLTVDKSRWQQGNVFSCSVMHEALHNHYTQKSLSLSPG
notes: also called wild type SIRPβ1

The binders below were run against T2, human CD47 (human, UniProt Q08722 19-135) (assay: SPR; the reference itself (wild type SIRPγ D1 domain)).
T2 construct: Soluble analyte in SPR; also called hCD47
T2 sequence (Q08722 other isoform, or with tags, fused parts or gaps limits assumed): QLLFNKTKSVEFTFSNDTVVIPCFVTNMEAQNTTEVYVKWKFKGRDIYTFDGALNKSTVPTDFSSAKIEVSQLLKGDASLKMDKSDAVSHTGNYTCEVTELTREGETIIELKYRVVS
In the case of B1, the “Fold improvement in KD vs wild type” value is reported as 1 fold.

The binders below were run against T2, human CD47 (assay: SPR; ratio against decoy polypeptide R (wild type SIRPγ D1 domain)).
Protocol: (§1) The binding affinities each decoy polypeptides for CD47 from various species (e.g., human CD47, cynomolgus monkey CD47, and mouse CD47) were determined using indirect capture via biotinylated Protein A (via NLC chip). All experiments were performed at 25° C. using a Surface Plasmon Resonance (SPR)-based ProteOn XPR36 biosensor (BioRad, Inc., Hercules, Calif.). The running buffer was PBS at pH 7.4 with 0.01% Tween-20 (PBST+). All analytes were used at their nominal concentrations as determined by A₂₈₀ absorbance and using their molar calculated extinction coefficients.
(§2) As a first step, 15 μg/mL biotinylated protein A (Thermofisher) was injected at 30 μL/min for 120 seconds over the NLC chip to obtain an immobilization response of about 1000-1200 RUs. Next, decoy polypeptides (about 100-160 nM) were injected for 80 seconds at 30 μL/min. The CD47 analytes (from human, cynomolgus monkey, and mouse) were subsequently injected in a “one-shot” kinetic mode at nominal concentrations of 100 nM, 33 nM, 11 nM, 3.7 nM, 1.2 nM, and 0 nM. Association times were monitored for 60 seconds at 25 μL/min, and dissociation times were monitored for 500 seconds. The surfaces were regenerated with a 2:1 v/v blend of Pierce IgG elution buffer/4M NaCl. Biosensor data were double-referenced by subtracting the interspot data (containing no immobilized protein) from the reaction spot data (immobilized protein) and then subtracting the response of a buffer “blank” analyte injection from that of an analyte injection. Double-referenced data were fit globally to a simple Langmuir model and the KD value was calculated from the ratio of the apparent kinetic rate constants (KD=kd/kₐ).
B2 was tested, and the “Fold improvement in KD vs wild type” value was 7960 fold.
For B3, the “Fold improvement in KD vs wild type” value was 545 fold.
B4 was tested, and the “Fold improvement in KD vs wild type” value was 1400 fold.
For B5, the “Fold improvement in KD vs wild type” value was 1220 fold.
B6 was tested, and the “Fold improvement in KD vs wild type” value was 9010 fold.
B7 was tested, and the “Fold improvement in KD vs wild type” value was 6840 fold.
B8 was tested, and the “Fold improvement in KD vs wild type” value was 2490 fold.
With B9 the “Fold improvement in KD vs wild type” value was 4530 fold.

The binders below were run against T2, human CD47 (assay: SPR, decoy captured on biotinylated Protein A, CD47 as analyte, 25 C).
Protocol: as §1, §2
Binder B1 has a Kd of 2190 nM.
Binder B10 has a Kd of 74.8 nM.
With B2 the Kd was 0.275 nM.
With B3 the Kd was 4.02 nM.
B4 gave a Kd of 1.56 nM.
Work on B5 yielded a Kd of 1.8 nM.
Binder B6 has a Kd of 0.243 nM.
For B7, the Kd was 0.32 nM.
With B8 the Kd was 0.881 nM.
Work on B9 yielded a Kd of 0.483 nM.
Work on B11 yielded a Kd of 0.213 nM.
With B12 the Kd was 0.35 nM.

Target: T2, human CD47
Assay: as above
Remark: another data set of the same source
Protocol: as §1, §2
B1 showed a Kd of 2190 nM.
B2 was tested, and the Kd was 0.398 nM.
B6 was tested, and the Kd was 0.243 nM.
B11 was tested, and the Kd was 0.0785 nM.
Binder B13 has a Kd of 0.193 nM.
With B12 the Kd was 0.288 nM.

What follows are binders tested against T3, cynomolgus monkey CD47 (cynomolgus monkey, UniProt A0A2K5X523 19-135) in the same assay as above.
T3 construct: Soluble analyte in SPR; construct not described; also called Cyno CD47
Protocol: as §1, §2
Binder B2 has a Kd of 0.33 nM.
Binder B6 has a Kd of 0.274 nM.
With B11 the Kd was 0.106 nM.
B13 gave a Kd of 0.224 nM.
B12 showed a Kd of 0.334 nM.

The binders below were run against T1, mouse CD47 in the same assay as above.
Protocol: as §1, §2
B2 gave a Kd of 1.3 nM.
With B6 the Kd was 0.905 nM.
With B11 the Kd was 24.1 nM.
B13 gave a Kd of 7.82 nM.
B12 showed a Kd of 146 nM.

These binders were tested against T2, human CD47 (assay: SPR, decoy captured on biotinylated Protein A (NLC chip), CD47 as analyte).
Protocol: as §1, §2
B14: no binding (tested: CD47 analyte up to 100 nM).
B15: no binding (tested: CD47 analyte up to 100 nM).
B16: no binding (tested: CD47 analyte up to 100 nM).
B17: no binding (tested: CD47 analyte up to 100 nM).
B18: no binding (tested: CD47 analyte up to 100 nM).

Target: T2, human CD47
Assay: as above
Remark: another data set of the same source
B19: no binding (tested: CD47 analyte up to 100 nM).
B20: no binding (tested: CD47 analyte up to 100 nM).

These binders were tested against T3, cynomolgus monkey CD47 in the same assay as above.
B1: no binding (tested: CD47 analyte up to 100 nM).
B19: no binding (tested: CD47 analyte up to 100 nM).
B20: no binding (tested: CD47 analyte up to 100 nM).

These binders were tested against T1, mouse CD47 in the same assay as above.
B1: no binding (tested: CD47 analyte up to 100 nM).
B19: no binding (tested: CD47 analyte up to 100 nM).
B20: no binding (tested: CD47 analyte up to 100 nM).
